Measurements reported in patent publication US20230287095A1 (published 2023).
Residue numbers refer to the chain shown, from its start.

B1: Humanized HC5 + LC1 (antibody, V domains shown)
VH: AVQLVESGGGLVQPGGSLKLSCAASGFTFSDAAMYWVRQASGKGLEWVARIRTKPNNYATYYAASVKGRFTISRDDSNSTAYLQMNSLKTEDTAVYYCTSWSYDFDYWGQGTLVTVSS
VL: DIVMTQSPLSLPVTPGEPASISCRSSKSLLHSSGKTYLNWYLQKPGQSPQLLIYWMSNRASGVPDRFSGSGSGTDFTLKISRVEAEDVGVYYCQQFLEYPLTFGQGTKLEIKR
B2: Humanized HC4 + LC1 (antibody, V domains shown)
VH: B1 VH with A1E, M34I
VL: B1 VL
B3: Humanized HC1 + LC1 (antibody, V domains shown)
VH: B1 VH with A1E, A49G, N78K, S79N
VL: B1 VL
B4: Humanized HC3 + LC1 (antibody)
heavy: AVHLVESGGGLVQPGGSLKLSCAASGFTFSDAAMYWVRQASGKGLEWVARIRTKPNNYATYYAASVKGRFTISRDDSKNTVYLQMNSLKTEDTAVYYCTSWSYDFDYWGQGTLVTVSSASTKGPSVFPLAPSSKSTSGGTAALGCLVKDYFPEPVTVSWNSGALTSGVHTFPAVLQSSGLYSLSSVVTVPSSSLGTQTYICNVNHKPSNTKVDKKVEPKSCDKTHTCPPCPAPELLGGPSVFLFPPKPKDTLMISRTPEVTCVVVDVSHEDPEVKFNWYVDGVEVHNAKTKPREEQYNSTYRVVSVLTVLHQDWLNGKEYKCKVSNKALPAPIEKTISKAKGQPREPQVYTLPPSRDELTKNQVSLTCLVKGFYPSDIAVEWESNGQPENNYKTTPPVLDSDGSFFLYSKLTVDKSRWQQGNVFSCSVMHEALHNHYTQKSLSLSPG
light: DIVMTQSPLSLPVTPGEPASISCRSSKSLLHSSGKTYLNWYLQKPGQSPQLLIYWMSNRASGVPDRFSGSGSGTDFTLKISRVEAEDVGVYYCQQFLEYPLTFGQGTKLEIKRTVAAPSVFIFPPSDEQLKSGTASVVCLLNNFYPREAKVQWKVDNALQSGNSQESVTEQDSKDSTYSLSSTLTLSKADYEKHKVYACEVTHQGLSSPVTKSFNRGEC
B5: Humanized HC2 + LC1 (antibody)
heavy: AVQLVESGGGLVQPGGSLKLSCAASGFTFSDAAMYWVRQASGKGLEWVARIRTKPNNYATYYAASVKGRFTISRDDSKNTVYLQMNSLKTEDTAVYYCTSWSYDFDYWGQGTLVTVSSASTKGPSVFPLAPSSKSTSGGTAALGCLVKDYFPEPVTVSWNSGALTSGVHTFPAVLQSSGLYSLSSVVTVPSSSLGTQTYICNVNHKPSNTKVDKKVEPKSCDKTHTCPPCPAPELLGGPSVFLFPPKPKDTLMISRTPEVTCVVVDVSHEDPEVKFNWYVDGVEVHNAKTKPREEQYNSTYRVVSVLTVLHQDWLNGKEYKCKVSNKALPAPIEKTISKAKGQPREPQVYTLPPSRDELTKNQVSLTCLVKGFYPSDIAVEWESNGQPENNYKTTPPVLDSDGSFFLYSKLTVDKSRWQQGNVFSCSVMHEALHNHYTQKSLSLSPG
light: B4 light
B6: Rat parental (antibody, V domains shown)
VH: AVHLVESGGGFVQPTESLKISCAASGFTFSDAAMYWVRQAPGKGLEWVARIRTKPNNYATYYADSVKGRFTISRDDSKSMVYLQMDNLKTEDTAMYYCTSWSYDFDYWGQGVMVTVSS
VL: DIVMTQGALPNPVPSGESASITCQSSKSLLHSSGKTYLNWYLQRPGQSPHLLIYWMSTRASGVSDRLSGSGSGTDFTLKISSVEAEDVGVYYCQQFLEYPLTFGSGTKLEIK
B7: Chimeric Parental (antibody, V domains shown)
VH: B6 VH
VL: B6 VL
B8: Humanized HC2 + LC4 (antibody)
heavy: not shown
light: B4 light with V3Q, N58T, Q105G, L109V
B9: Humanized HC4 + LC4 (antibody)
heavy: not shown
light: B4 light with V3Q, N58T, Q105G, L109V
B10: Humanized HC1 + LC4 (antibody)
heavy: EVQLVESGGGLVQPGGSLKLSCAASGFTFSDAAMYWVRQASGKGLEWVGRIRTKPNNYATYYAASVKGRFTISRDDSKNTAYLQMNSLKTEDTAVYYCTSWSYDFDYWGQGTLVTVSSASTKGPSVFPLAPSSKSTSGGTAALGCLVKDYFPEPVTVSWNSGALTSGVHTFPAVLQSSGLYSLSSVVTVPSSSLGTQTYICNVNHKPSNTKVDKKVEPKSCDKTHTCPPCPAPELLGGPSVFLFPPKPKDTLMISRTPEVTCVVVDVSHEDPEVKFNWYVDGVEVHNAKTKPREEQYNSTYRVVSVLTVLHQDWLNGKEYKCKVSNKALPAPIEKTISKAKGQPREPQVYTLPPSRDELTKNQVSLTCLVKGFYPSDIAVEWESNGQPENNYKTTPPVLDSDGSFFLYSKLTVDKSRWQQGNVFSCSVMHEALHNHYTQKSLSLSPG
light: B4 light with V3Q, N58T, Q105G, L109V
B11: Humanized HC5 + LC4 (antibody)
heavy: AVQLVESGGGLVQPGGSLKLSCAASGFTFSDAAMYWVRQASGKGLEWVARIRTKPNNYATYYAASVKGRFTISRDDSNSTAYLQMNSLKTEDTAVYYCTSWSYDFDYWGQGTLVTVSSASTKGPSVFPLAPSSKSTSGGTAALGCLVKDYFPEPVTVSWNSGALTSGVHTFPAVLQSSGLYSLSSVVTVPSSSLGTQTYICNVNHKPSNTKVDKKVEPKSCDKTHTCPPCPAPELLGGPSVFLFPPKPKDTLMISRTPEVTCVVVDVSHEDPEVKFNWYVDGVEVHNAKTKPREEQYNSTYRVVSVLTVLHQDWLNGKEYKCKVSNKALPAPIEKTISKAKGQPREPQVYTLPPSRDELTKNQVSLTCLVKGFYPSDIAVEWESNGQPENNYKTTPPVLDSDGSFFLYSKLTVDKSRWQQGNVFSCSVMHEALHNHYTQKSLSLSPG
light: B4 light with V3Q, N58T, Q105G, L109V
B12: Humanized HC3 + LC4 (antibody)
heavy: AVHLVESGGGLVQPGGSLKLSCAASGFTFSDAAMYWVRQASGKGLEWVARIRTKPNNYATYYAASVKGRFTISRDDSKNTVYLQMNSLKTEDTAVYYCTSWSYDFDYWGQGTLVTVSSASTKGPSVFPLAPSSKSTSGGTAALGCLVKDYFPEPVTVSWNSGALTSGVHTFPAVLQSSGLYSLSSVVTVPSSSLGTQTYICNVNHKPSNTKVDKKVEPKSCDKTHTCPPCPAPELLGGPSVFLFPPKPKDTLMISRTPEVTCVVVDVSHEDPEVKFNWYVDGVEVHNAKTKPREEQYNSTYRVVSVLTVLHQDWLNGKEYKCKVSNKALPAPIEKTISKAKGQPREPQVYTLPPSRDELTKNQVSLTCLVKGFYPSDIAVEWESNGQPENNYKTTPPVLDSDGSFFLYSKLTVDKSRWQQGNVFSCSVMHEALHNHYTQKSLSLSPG
light: B4 light with V3Q, N58T, Q105G, L109V
B13: Humanized HC5 + LC2 (antibody)
heavy: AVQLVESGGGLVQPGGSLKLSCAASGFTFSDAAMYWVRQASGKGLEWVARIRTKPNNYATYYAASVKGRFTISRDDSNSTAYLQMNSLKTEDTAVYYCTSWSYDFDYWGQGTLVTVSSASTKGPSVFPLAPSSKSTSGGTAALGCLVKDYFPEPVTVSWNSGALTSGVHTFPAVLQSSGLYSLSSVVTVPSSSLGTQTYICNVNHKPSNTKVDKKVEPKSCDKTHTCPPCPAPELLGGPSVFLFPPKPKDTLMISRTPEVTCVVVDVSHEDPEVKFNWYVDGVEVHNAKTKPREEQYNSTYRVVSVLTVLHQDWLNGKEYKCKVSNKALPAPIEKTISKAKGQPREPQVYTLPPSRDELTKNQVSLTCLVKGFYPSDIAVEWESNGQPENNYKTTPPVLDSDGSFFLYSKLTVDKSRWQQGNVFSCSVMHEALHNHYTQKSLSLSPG
light: B4 light with N58T
B14: Humanized HC3 + LC2 (antibody)
heavy: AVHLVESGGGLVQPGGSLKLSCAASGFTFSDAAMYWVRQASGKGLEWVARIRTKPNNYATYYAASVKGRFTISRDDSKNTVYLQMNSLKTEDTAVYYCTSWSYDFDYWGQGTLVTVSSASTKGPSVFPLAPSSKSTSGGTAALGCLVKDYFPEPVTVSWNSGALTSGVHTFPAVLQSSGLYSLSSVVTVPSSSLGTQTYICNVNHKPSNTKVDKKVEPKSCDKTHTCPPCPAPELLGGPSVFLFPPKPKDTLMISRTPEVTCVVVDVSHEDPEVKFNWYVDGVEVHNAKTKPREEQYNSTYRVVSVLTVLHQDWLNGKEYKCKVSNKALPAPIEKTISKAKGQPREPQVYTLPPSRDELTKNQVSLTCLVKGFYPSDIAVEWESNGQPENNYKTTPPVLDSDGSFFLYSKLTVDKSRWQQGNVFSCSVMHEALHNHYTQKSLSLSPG
light: B4 light with N58T
B15: Humanized HC4 + LC2 (antibody)
heavy: not shown
light: B4 light with N58T
B16: Humanized HC1 + LC2 (antibody)
heavy: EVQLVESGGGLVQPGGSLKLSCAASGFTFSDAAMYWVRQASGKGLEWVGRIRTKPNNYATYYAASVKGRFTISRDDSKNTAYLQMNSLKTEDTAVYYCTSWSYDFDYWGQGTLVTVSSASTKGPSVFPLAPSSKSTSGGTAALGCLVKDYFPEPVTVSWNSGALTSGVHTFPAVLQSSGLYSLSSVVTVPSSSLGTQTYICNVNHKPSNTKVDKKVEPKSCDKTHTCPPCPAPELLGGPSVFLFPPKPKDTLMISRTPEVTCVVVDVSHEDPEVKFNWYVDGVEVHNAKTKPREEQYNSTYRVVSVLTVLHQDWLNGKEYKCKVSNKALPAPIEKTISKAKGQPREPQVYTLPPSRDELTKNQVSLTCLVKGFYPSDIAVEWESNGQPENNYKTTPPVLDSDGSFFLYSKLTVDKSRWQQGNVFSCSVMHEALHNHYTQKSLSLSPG
light: B4 light with N58T
B17: Humanized HC2 + LC2 (antibody)
heavy: not shown
light: B4 light with N58T
B18: Humanized HC1 + LC3 (antibody)
heavy: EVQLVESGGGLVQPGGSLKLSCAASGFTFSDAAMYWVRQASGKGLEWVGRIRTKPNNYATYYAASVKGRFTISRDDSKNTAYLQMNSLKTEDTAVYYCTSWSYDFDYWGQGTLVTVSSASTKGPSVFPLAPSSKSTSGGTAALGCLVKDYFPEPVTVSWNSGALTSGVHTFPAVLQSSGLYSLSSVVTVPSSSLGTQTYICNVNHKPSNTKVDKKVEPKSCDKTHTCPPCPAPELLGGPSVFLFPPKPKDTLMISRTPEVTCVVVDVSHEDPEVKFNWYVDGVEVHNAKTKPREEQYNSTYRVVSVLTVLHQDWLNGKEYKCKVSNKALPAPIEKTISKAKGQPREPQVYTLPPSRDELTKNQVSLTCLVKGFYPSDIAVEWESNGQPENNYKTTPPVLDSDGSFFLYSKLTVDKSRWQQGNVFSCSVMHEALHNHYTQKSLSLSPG
light: B4 light with N58T, Q105G, L109V
B19: Humanized HC3 + LC3 (antibody)
heavy: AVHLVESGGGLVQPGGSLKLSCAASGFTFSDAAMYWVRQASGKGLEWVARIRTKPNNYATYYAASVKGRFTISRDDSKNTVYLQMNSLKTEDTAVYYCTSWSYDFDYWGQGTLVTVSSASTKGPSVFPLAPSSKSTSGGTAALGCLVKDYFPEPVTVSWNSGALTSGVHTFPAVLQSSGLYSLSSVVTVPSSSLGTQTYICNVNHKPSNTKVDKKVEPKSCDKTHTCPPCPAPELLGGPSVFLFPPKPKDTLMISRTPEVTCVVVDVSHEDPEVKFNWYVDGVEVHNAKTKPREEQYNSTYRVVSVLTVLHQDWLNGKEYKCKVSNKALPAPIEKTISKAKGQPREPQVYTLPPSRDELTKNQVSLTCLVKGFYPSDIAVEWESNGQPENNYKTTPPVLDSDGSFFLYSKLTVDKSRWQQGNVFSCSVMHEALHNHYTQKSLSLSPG
light: B4 light with N58T, Q105G, L109V
B20: Humanized HC5 + LC3 (antibody)
heavy: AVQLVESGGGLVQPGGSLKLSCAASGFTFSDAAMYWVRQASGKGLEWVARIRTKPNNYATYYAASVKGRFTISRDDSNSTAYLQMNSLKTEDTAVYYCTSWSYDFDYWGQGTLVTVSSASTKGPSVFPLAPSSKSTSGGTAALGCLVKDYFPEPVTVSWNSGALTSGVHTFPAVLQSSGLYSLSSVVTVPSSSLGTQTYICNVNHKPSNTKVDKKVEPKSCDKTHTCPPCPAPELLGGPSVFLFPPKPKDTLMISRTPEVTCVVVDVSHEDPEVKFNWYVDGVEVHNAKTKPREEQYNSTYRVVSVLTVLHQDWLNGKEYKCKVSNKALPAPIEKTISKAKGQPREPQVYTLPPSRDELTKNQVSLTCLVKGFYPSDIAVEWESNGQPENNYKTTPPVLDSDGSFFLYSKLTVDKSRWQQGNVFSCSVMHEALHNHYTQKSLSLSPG
light: B4 light with N58T, Q105G, L109V
B21: Humanized HC4 + LC3 (antibody)
heavy: not shown
light: B4 light with N58T, Q105G, L109V
B22: Humanized HC2 + LC3 (antibody)
heavy: not shown
light: B4 light with N58T, Q105G, L109V

Target: T1, human pro-EMAPII (human, UniProt Q12904 1-312)
T1 chain: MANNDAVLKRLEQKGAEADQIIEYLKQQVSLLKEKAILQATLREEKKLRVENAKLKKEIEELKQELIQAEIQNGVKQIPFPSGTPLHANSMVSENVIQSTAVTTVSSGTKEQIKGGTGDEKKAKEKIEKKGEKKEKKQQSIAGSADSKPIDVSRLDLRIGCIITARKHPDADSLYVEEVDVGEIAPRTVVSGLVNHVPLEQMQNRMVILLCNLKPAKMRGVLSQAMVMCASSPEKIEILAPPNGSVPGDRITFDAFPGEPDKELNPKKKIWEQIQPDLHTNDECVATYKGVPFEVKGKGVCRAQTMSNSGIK
Assay: ELISA

Row | Binder | EC50
1 | B1 | 0.163 µg/mL
2 | B2 | 0.198 µg/mL
3 | B3 | 0.098 µg/mL
4 | B4 | 0.082 µg/mL
5 | B5 | 0.076 µg/mL
6 | B6 | 3.6 µg/mL
7 | B7 | 0.361 µg/mL

Target: T1, human pro-EMAPII
Assay: ELISA
Remark: another data set of the same source

Row | Binder | EC50
8 | B8 | 0.078 µg/mL
9 | B9 | 0.197 µg/mL
10 | B10 | 0.113 µg/mL
11 | B11 | 0.166 µg/mL
12 | B12 | 0.07 µg/mL
13 | B6 | 3.39 µg/mL
14 | B7 | 0.329 µg/mL

Target: T1, human pro-EMAPII
Assay: ELISA
Remark: another data set of the same source

Row | Binder | EC50
15 | B13 | 0.17 µg/mL
16 | B14 | 0.081 µg/mL
17 | B15 | 0.271 µg/mL
18 | B16 | 0.089 µg/mL
19 | B17 | 0.112 µg/mL
20 | B6 | 3.6 µg/mL
21 | B7 | 0.361 µg/mL

Target: T1, human pro-EMAPII
Assay: ELISA
Remark: another data set of the same source

Row | Binder | EC50
22 | B18 | 0.108 µg/mL
23 | B19 | 0.077 µg/mL
24 | B20 | 0.2 µg/mL
25 | B21 | 0.229 µg/mL
26 | B22 | 0.075 µg/mL
27 | B6 | 3.39 µg/mL
28 | B7 | 0.329 µg/mL
